Test results reported in US7901879B2, “Lactoferrin in the treatment of malignant neoplasms and other hyperproliferative diseases” (Agennix Incorporated, priority 2002, dated 2011).
Values joined by “and” are separate entries in the source; they are usually repeats but may differ in a detail not shown here. Equal values may be shown once. Marks after values point to notes of the source that are not given here.

Columns and labels:
[1] = test system: O12 human oropharyngeal squamous cell carcinoma tumor cells; experiment: Intratumoral rhLF in O12 tumors in nude mice (Example 17); format: in vivo, athymic nude mice
Experimental: O12 human oropharyngeal squamous cell carcinoma tumor cells were injected to the right flank of athymic nude mice. Recombinant human lactoferrin and vehicle controls were dosed via intratumoral injection. Each animal was administered different concentrations of rhLF in 50 μL doses consisting of four separate injections of approximately 12.5 μL of the dose, at different directions and angles (approximately S/N/E/W) to ensure that the dose was distributed evenly throughout the tumor (fanning).
In this study, rhLF was administered directly into the tumor. Each animal was tracked daily for tumor growth by external caliper measurements of the protruding tumor.

[2] = test system: murine squamous carcinoma cell line (SCCVII); experiment: SCCVII floor-of-mouth tumor growth, oral rhLF and/or cisplatin (Example 6); format: in vivo, immunocompetent C3H mice; conditions: rhLF alone 200 mg/kg oral once daily days 5-12
Experimental: A murine squamous carcinoma cell line (SCCVII) was injected into the floor of the mouth through the neck skin of immunocompetent C3H mice (Day 0). […] Tumors were measured in three dimensions with calipers.
Tumor-bearing mice were randomized into a control group and seven groups receiving rhLF and/or cisplatin. RhLF (4 mg; 200 mg/Kg) was administered once daily by oral gavage for 8 days on days 5 through 12. Cisplatin was administered as a single dose of 5 mg/Kg given intraperitoneally either at the start of rhLF (day 5), in the middle (day 8) or at the end (day 12) of rhLF therapy. Animals were sacrificed on day 12 post-implantation and the residual tumor masses were measured and processed for later additional analyses.

IL-18 = IL-18 levels in small intestine and serum after oral rhLF or bLF (cytokine ELISA); format: in vivo, mice; conditions: for IL-18 Intestinal Extract / IL-18 Serum: 24 h after last dose
Experimental: Recombinant human lactoferrin and bovine lactoferrin were orally administered to mice, and the production of IL-18 in the small intestine was measured.
Mice were treated for three days daily with 65 mg/kg/day of rhLF, 300 mg/kg/day of rhLF or 300 mg/kg/day of bLF. For a control, mice were only administered the pharmaceutical carrier. Twenty-four hours following administration of the LF or control for 3 days, animals were weighed and blood and serum were collected. Serum was used for cytokine ELISA assays.
Also, at these time points, animals were sacrificed and the small intestinal tissue was removed for further analysis. Small intestinal epithelium was homogenized using a lysis buffer consisting of PBS, 1% Nonidet P-40, 0.5% sodium deoxycholate, and 0.1% sodium dodecyl sulphate containing 10 μg/ml PhenylMetheylsulfonyl fluoride. Homogenate was centrifuged at 15,000 rpm for 10 minutes and the supernatant stored at −80 C. till it was tested for IL-18 levels.

GM-CSF = GM-CSF production in small intestine after oral rhLF (ELISA); format: in vivo, mice; conditions: oral 300 mg/kg/day three days
Experimental: Recombinant human lactoferrin or placebo were orally administered to mice, and the production of GM-CSF in the small intestine was measured.
Mice (5 animals per group) were treated for three days daily with 300 mg/kg/day of rhLF. For a control, mice were only administered the pharmaceutical carrier. Twenty-four hours following administration of the LF or placebo for 3 days, animals were and the small intestinal tissue was removed for further analysis. Small intestinal epithelium was homogenized using a lysis buffer consisting of PBS, 1% Nonidet P-40, 0.5% sodium deoxycholate, and 0.1% sodium dodecyl sulphate containing 10 μg/ml PhenylMetheylsulfonyl fluoride. Homogenate was centrifuged at 15,000 rpm for 10 minutes and the supernatant stored at −80 C. till it was tested for GM-CSF levels using an ELISA kit.

[3] = test system: NK-activity against YAC targets; experiment: Ex vivo NK activity of spleen NK cells against YAC targets (LDH release) after oral rhLF; format: in vivo, Balb/c naïve mice; conditions: for % Cytotoxicity Increased over ctrl: rhLF minus placebo; for % Cytotoxicity Final: oral 300 mg/kg/day 3 days
Experimental: Balb/c naïve mice were treated orally with rhLF or placebo once a day for 3 days (see Table 4).
On day 4, mice were sacrificed and spleens were collected. NK cells were separated using a magnetic bead cell sorting assay (MACS anti-NK-DX5) and counted. Cells were then tested in vitro for NK-activity against YAC targets using a lactate dehydrogenase (LDH) release test.
Balb/c naïve mice were treated orally with rhLF or placebo once a day for 3 days. One day later (day 4), mice were sacrificed and spleens collected. NK cells were separated using a magnetic bead cell sorting assay (MACS anti-NK-DX5) and counted. Cells were then tested in vitro for NK-activity against YAC targets using a lactate dehydrogenase (LDH) release test.

[4] = test system: murine squamous carcinoma cell line (SCCVII); experiment: SCCVII tumor growth, oral rhLF and/or radiotherapy (Example 9); format: in vivo, immunocompetent C3H mice
Experimental: A murine squamous carcinoma cell line (SCCVII) was injected into the floor of mouth through the neck skin of immunocompetent C3H mice (Day 0). […] Tumors were measured in three dimensions with calipers.
Tumor-bearing mice were randomized into six groups receiving rhLF (200 mg/Kg) and/or radiotherapy as described below. RhLF (4 mg; 200 mg/kg) was administered by oral gavage once daily for 8 days on days 5 through 12. Radiotherapy was administered as single dose of 2 Gray given at the beginning (day 5) or at during (day 8) rhLF-therapy. Animals were sacrificed on day 14 post-treatment and the residual tumor masses were measured and processed for later additional analyses.

[5] = test system: Human squamous cell carcinoma (O12); experiment: Tumor growth inhibition by rhLF in O12 tumor model in mice (Example 1); format: in vivo, athymic nude mice
Experimental: Human squamous cell carcinoma (O12) was used. The cells were injected into the right flank of athymic nude mice. rhLF was administered either intratumorally (49 animals, 7 doses ranging from 0.05 μg to 125 μg per dose), intravenously (7 animals, 125 ug/dose) or orally (7 animals 20 mg/dose). Control animals were treated with only the vehicle; no rhLF was administered to the control animals. rhLF was administered twice a day for either five days (intravenous group) or eight days (all other groups) starting 11 days after inoculation with tumor cells to allow formation of established tumors.
The efficacy of treatment was evaluated by measuring the solid tumor size during and at the end of the experiment; the body weights were also determined at the time of tumor measurements.

[6] = oral 65 mg/kg rhLF versus 300 mg/kg bLF
[7] = oral 65 mg/kg/day for three days
[8] = oral 300 mg/kg rhLF versus 300 mg/kg bLF
[9] = oral 300 mg/kg/day for three days
[10] = oral, rhLF at both doses, bLF 300 mg/kg/day

B1: Recombinant human lactoferrin (protein, UniProt P02788 20-710, looked up)
Lactotransferrin: GRRRSVQWCAVSQPEATKCFQWQRNMRKVRGPPVSCIKRDSPIQCIQAIAENRADAVTLDGGFIYEAGLAPYKLRPVAAEVYGTERQPRTHYYAVAVVKKGGSFQLNELQGLKSCHTGLRRTAGWNVPIGTLRPFLNWTGPPEPIEAAVARFFSASCVPGADKGQFPNLCRLCAGTGENKCAFSSQEPYFSYSGAFKCLRDGAGDVAFIRESTVFEDLSDEAERDEYELLCPDNTRKPVDKFKDCHLARVPSHAVVARSVNGKEDAIWNLLRQAQEKFGKDKSPKFQLFGSPSGQKDLLFKDSAIGFSRVPPRIDSGLYLGSGYFTAIQNLRKSEEEVAARRARVVWCAVGEQELRKCNQWSGLSEGSVTCSSASTTEDCIALVLKGEADAMSLDGGYVYTAGKCGLVPVLAENYKSQQSSDPDPNCVDRPVEGYLAVAVVRRSDTSLTWNSVKGKKSCHTAVDRTAGWNIPMGLLFNQTGSCKFDEYFSQSCAPGSDPRSNLCALCIGDEQGENKCVPNSNERYYGYTGAFRCLAENAGDVAFVKDVTVLQNTDGNNNEAWAKDLKLADFALLCLDGKRKPVTEARSCHLAMAPNHAVVSRMDKVERLKQVLLHQQAKFGRNGSDCPDKFCLFQSETKNLLFNDNTECLARLHGKTTYEKYLGPQYVAGITNLKKCSTSPLLEACEFLRK
notes: human lactoferrin produced recombinantly
reduction of rates of tumor growth versus pooled placebo ([1]; Group A, single intratumoral dose, day 11 after administration, p<0.05): 50% | reduction of rates of tumor growth versus pooled control group ([1]; Group C, intratumoral twice daily for 8 days, p<0.01): 56% | TGI (%) Relative to Placebo [2]: 33% | IL-18 Intestinal Extract % Increase Over Control (IL-18; oral 65 mg/kg): 725% | IL-18 Serum % Increase Over Control (IL-18; oral 65 mg/kg): 84% | IL-18 Intestinal Extract % Increase Over Blf (IL-18; [6]): 75% | IL-18 Serum % Increase Over Blf (IL-18; [6]): 94% | IL-18 Intestinal Extract (IL-18; [7]): 7,879 pg | IL-18 Serum (IL-18; [7]): 259 pg | IL-18 Intestinal Extract % Increase Over Control (IL-18; oral 300 mg/kg): 775% | IL-18 Serum % Increase Over Control (IL-18; oral 300 mg/kg): 132% | IL-18 Intestinal Extract % Increase Over Blf (IL-18; [8]): 85% | IL-18 Serum % Increase Over Blf (IL-18; [8]): 145% | IL-18 Intestinal Extract (IL-18; [9]): 8,350 pg | IL-18 Serum (IL-18; [9]): 328 pg | effect on amount of IL-18 in the intestinal extract (IL-18; [10]): significantly enhanced | effect on amount of IL-18 in the serum (IL-18; [10]): significantly enhanced | GM-CSF Mean (SEM) (GM-CSF; 24 h after last dose): 7.74 (0.19) pg | GM-CSF Increase over Placebo (GM-CSF; p < 0.01): 19.4% (p < 0.01) | relative increase of NK activity over placebo-treated animals ([3]; 30:1 E:T ratio, p<0.05): 243% | % Cytotoxicity Increased over ctrl ([3]; E:T ratio 3.7:1): 0% | % Cytotoxicity Increased over ctrl ([3]; E:T ratio 7.5:1): 0% | % Cytotoxicity Increased over ctrl ([3]; E:T ratio 15:1): 1.3% | % Cytotoxicity Increased over ctrl ([3]; E:T ratio 30:1): 7** % | % Cytotoxicity Final ([3]; E:T ratio 3.7:1): 0% | % Cytotoxicity Final ([3]; E:T ratio 7.5:1): 0.44% | % Cytotoxicity Final ([3]; E:T ratio 15:1): 4.12% | % Cytotoxicity Final ([3]; E:T ratio 30:1, 300 mg/kg/day): 10% and 9.81% | % Cytotoxicity Final ([3]; E:T ratio 30:1, listed as RhLF, 300 mg/kg/day): 9.81% | Inhibition Relative to Placebo ([4]; both rhLF/Rad groups pooled (D/F)): 67% | Inhibition Relative to Placebo ([4]; rhLF 200 mg/kg oral days 5-12 plus radiation 2 Gray on day 5): 68% | Inhibition Relative to Placebo ([4]; rhLF 200 mg/kg oral days 5-12 plus radiation 2 Gray on day 8): 66% | Inhibition Relative to Placebo ([4]; rhLF alone 200 mg/kg oral once daily days 5-12): 54% | increase in TGI over monotherapy with rhLF ([4]; rhLF plus radiation, P<0.05): 28% | increase in TGI over monotherapy with radiation ([4]; rhLF plus radiation, P=0.1207): 15% | Inhibition Relative to Placebo ([5]; intratumoral, twice a day for eight days, 0.05 μg to 125 μg per dose, Day 19): 28% | Inhibition Relative to Placebo ([5]; intratumoral, twice a day for eight days, 0.05 μg to 125 μg per dose, Day 28): 46% | Inhibition Relative to Placebo ([5]; intravenous 125 ug/dose twice a day for five days, Day 19): 55% | Inhibition Relative to Placebo ([5]; intravenous 125 ug/dose twice a day for five days, Day 28): 65% | Inhibition Relative to Placebo ([5]; oral 20 mg/dose twice a day for eight days, Day 19): 76% | Inhibition Relative to Placebo ([5]; oral 20 mg/dose twice a day for eight days, Day 28): 80%
